From patent US20200123266A1 (Memorial Sloan Kettering, published 2020)
Ends that are not written are not given here. * marks the point of attachment. Biotin = O=C1N[C@H]2[C@H](CS[C@H]2CCCCC(=O)*)N1

Key:
ET140-p26 = molecular target: T1, ET140-p26 (human, cysteine pairing not given here); assay: peptide ELISA, biotin peptide on streptavidin plate, antibody 1 ug/mL
T1 construct: also called peptide 26
T1 peptide: Biotin-SGSGRCSSNTPPLTCQRYC
Description: (§1) The peptides were coated onto Streptavidin plates at 2 ug/mL in PBST (PBS+0.05% Tween-20). After washing and blocking with 3% BSA. After washing, 1 ug/mL ET140-3, ET140-24, ET140-54 or ET901 mIgG1 was added to the wells, respectively. “mIgG1” used in all Examples represents that the variable region is fully human and the Fc part is mouse IgG1. Then HRP anti-mouse IgG detection antibody was added to each well. Finally, the color was developed using TMB substrate. A450 was recorded for data analysis.

ET140-p25 = molecular target: T2, ET140-p25 (human, cysteine pairing not given here); assay: as above
T2 construct: also called peptide 25
T2 peptide: Biotin-SGSGLRCSSNTPPLTCQRY
Description: as §1

A450 (ET140-p26): 0.225 | A450 (ET140-p25): 0.583
B1: ET140-153 mIgG1 (antibody, V domains shown)
VH: QVQLVQSGAEVKKPGSSVKVSCKASGGTFSSYAISWVRQAPGQGLEWMGRIIPILGIANYAQKFQGRVTITADKSTSTAYMELSSLRSEDTAVYYCARGGYYSHDMWSEDWGQGTLVTVSS
VL: LPVLTQPPSASGTPGQRVTISCSGRSSNIGSNSVNWYRQLPGAAPKLLIYSNNQRPPGVPVRFSGSKSGTSASLAISGLQSEDEATYYCATWDDNLNVHYVFGTGTKVTVLG
notes: also called ET140-3 mIgG1; ET140-3
